{
  "source": "paper PMC4393304",
  "about": "“Cloning and Characterization of Three Eimeria tenella Lipid Phosphate Phosphatases” (PLoS ONE, 2015)",
  "molecules": {"B1": {"name": "EtLPP1 (Eimeria tenella) (protein)", "chain": "MVSHEPDPTRTYSIDIRNGGSSVGRTQDPSLPPALDSATSLSSSPQFSCAPTRQHRRPYFLRICIHLMTCIILLVWSLVLLPKPAVVRGAFCNNTGISAPYQRESVSSFGLFGICFGIPFFLVAVVELLFSAVRSTREGNQEETSVTLFNKKLSQTLVDLYKYWGTLAVSLNLAFLLTNALKAAVGSLRPHFLDVCKPDWSQVACKDPTSERYVYVDNFHCTGDPKLMEEARRSFPSGHSSCTVCGMLFGALYLHFRFSCQGQSTGCCSEQPLKRGRKSAIVEQVYSAFQALVPFLQAIMLLLALYIPATRIRENFHHGRDVAAGMAIGVLSTLYGFFLVLNVNGR", "notes": "full-length, 347 residues, calculated Mr 38239; His6-tagged (pcDNA3.1/His), transient in HEK293 cells, membrane fraction, Ni-NTA purified; bands 40 and 42 kDa, monomer"}},
  "key": {"EtLPP1": {"molecular_target": "T1, EtLPP1 (Eimeria tenella, UniProt A0A0A7H6F4)", "T1 construct": "full-length, 347 residues, calculated Mr 38239; His6-tagged (pcDNA3.1/His), transient in HEK293 cells, membrane fraction, Ni-NTA purified; bands 40 and 42 kDa, monomer", "T1 sequence (A0A0A7H6F4 1-346)": "B1 chain", "assay": "PiPer phosphate-release fluorescence assay", "format": "biochemical", "details": "pH 6.5, 37°C, Triton X-100 mixed micelles, 1 mg/ml fatty-acid free BSA, Mg2+-independent", "description": "(§1) PiPer phosphate-release fluorescence assay on EtLPP1"}, "[1]": {"substrate": "CCCCCCCCCCCCC/C=C/[C@@H](O)[C@@H](N)COP(=O)(O)O", "assay": "PiPer phosphate-release fluorescence assay", "format": "biochemical, Eimeria tenella", "details": "pH 6.5, 37°C, Triton X-100 mixed micelles, 1 mg/ml fatty-acid free BSA, Mg2+-independent", "description": "as §1"}},
  "data": [
    {"molecule": "LPA", "values": [
      {"measurement": "Km", "setting": "EtLPP1", "value": "46 ± 9", "unit": "µM"}
    ]},
    {"molecule": "B1", "values": [
      {"measurement": "Km", "setting": "[1]", "value": "22 ± 6", "unit": "µM"},
      {"measurement": "Vmax", "setting": "[1]", "value": 0.00015, "unit": "µmol/min/mg"}
    ]}
  ]
}
